Tested on: MS2 coat protein
Test: apparent KD of MS2 coat protein; designed switch direction (-1 OFF switch, 1 ON switch): -1; higher = weaker reporter binding
Outline: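 Designed RNA switches with common flanks were made on Illumina chips by stalled E. coli RNA polymerase. Titration with SNAP-549-labelled MS2 coat protein doubled from 0.7 or 1.5 nM up to 3 µM. Apparent KD is each design's median over clusters after curve-fitting normalised fluorescence.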

[1] = input ligand: microRNA oligo, concentration not stated

| Sequence | apparent KD of MS2 coat protein (input ligand: FMN 200 uM) | apparent KD of MS2 coat protein [1] | apparent KD of MS2 coat protein (input ligand: none) | apparent KD of MS2 coat protein (Eterna round: R95, input ligand: FMN 200 uM) | apparent KD of MS2 coat protein (Eterna round: R95, input ligand: microRNA oligo, concentration not stated) | apparent KD of MS2 coat protein (Eterna round: R95, input ligand: none) |
| --- | --- | --- | --- | --- | --- | --- |
| GUAAUGCUGCGAGGAUAUACAUGAGGAUCACCCAUGUGGAUGUCUGAGGCAAAGCCUCAGACGAUGUAGAAGGCGCAGUAAAAU [Mat - Exclusion NG 2 - Mod of JL - D54] (Eterna round: R96, puzzle: Exclusion NG 2) | 85.7 nM | 17.6 nM | 44.4 nM | – | – | – |
| CGCGGCGCGUAGGAUAUUGGGUCGGACGGCAAAUAAGAAGGACGCACAUGAGGAUCACCCAUGUCGAAAGCACA [Eternabot (Original) Solution 17] (Eterna round: R97, puzzle: Exclusion 6) | 27.8 nM | – | 33.7 nM | – | – | – |
| UAUGGUAAAGUCAGGAUAUACGUGCAGAAUUCUAGGUAGAAGGGACAUGAGGAUCACCCAUGUAUGGUAGUGUU [Ex4 #44] (Eterna round: R97, puzzle: Brourd's mod of Exclusion 4) | 146 nM | – | 104 nM | – | – | – |
| GUAGAGUCAGGAUAUACAAAUAGAUCGAAAGAUCAAUCCAUACAUGAGGAUCACCCAUGUAGAAGGGACUCUAC [Eli x2 4.15] (Eterna round: R97, puzzle: Exclusion 2) | 20.5 nM | – | 16.7 nM | – | – | – |
| GAAUGAGAGCAGGAUAUCUUAUAAAUGUAUGAAAGAGAAGGGCUCACAUGAGGAUCACCCAUGUGGUCCUAAAU [jl-ex6-4.74 jandersonlee mod] (Eterna round: R97, puzzle: Exclusion 6) | 286 nM | – | 44.5 nM | – | – | – |
| CGGGCAGCAGGAUAUACAUAGGUCAACAGAAAUGAGUAUUGACAUGAGGAUCACCCAUGUAGAAGGGCUGUACC [Eternabot (L2) Solution 96] (Eterna round: R97, puzzle: Exclusion 2) | 412 nM | – | 391 nM | – | – | – |
| GUCAGCUCGUGAGGAUAUAUAUACAUGAGGAUCACCCAUGUAAGAUCAGGCUUCGGCCAAUGUAUAUAGAAGGCACGAGCUGAC [ENG2/11-A1] (Eterna round: R96, puzzle: Exclusion NG 2) | 1350 nM | 1510 nM | 636 nM | – | – | – |
| GCGGACUAGAUCGUGAGAUCAGAGACAUGAGGAUCACCCAUGUAGGAUAUCGAUUCGAAACGAAUCGAGAAGGGCAUAGUCCGC [JL denovo 7] (Eterna round: R96, puzzle: Exclusion NG 3) | 17.1 nM | 14.8 nM | 15.9 nM | – | – | – |
| UCAUGCUAAGGAUAUGACGUCGGCUACAUGAGGAUCACCCAUGUGGGUUCGUUAUGGCCAUUAGAAGGUAGCGAUU [Eternabot (L2) Solution 95] (Eterna round: R97, puzzle: Exclusion 5) | 17.8 nM | – | – | – | – | – |
| GUGGGUUACAUGAGGAUCACCCAUGUAUAGUGGGAAGAGAUAUAGGAUAUAAUAUAAAAAUUAUAUUAGAAGGAUAGAGACUAG [AK ExNG3-1.2] (Eterna round: R96, puzzle: Exclusion NG 3) | 491 nM | 285 nM | 505 nM | – | – | – |
| CCGGCCGCCGUGAGGAUAUGCCCGCGCGCCCGCGGGCAGAAGGCACAUGAGGAUCACCCAUGUCCCGCGGUCCC [salish99_bmx4_r4_123] (Eterna round: R97, puzzle: Brourd's mod of Exclusion 4) | 35.8 nM | – | 15.6 nM | – | – | – |
| GGAGGACGAGCAGGAUAUUUUUACAUGAGGAUCACCCAUGUGUAAUCAGGGUAAUCCUCCGCCGAAAAGAAGGGUUCGGAAGAA [Mat - Exclusion NG 2 - Mod of JL - D83] (Eterna round: R96, puzzle: Exclusion NG 2) | 2750 nM | 16.9 nM | 67.6 nM | – | – | – |
| AGAGUACAUGAGGAUCACCCAUGUUAGGAUAUGCAUAAUAAGAAGAAGAGAAGAGAGAGCAGAAGGAACAAGAG [Ex 1 M1] (puzzle: Exclusion 1) | – | – | – | 42.5 nM | 48 nM | 57.8 nM |
